Ends that are not written are not given here.

Test [1] addresses Integrin αvβ3 (Homo sapiens) (UniProt P06756). Conditions: cited from earlier work.
Test [2] addresses T1, chemokine domain of fractalkine (FKN-CD), wild type (UniProt P78423 25-100).
T1 construct: fractalkine (CX3CL1), N-terminal chemokine domain, printed as residues 1-76; The limits 1-76 are printed for the chemokine domain in general (introduction); also called WT FKN-CD; CX3CL1
T1 sequence (looked up): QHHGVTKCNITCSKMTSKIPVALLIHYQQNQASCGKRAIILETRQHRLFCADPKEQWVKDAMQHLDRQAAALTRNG
The test can be described thus: ELISA; FKN-CD, γC399tr, FN-H120 or FN8-11 coated on wells (5 µM in Figure 4d; GST removed from FN-H120 and FN8-11); GST-tagged S2 peptides added in PBS, 2 h at room temperature; detected with HRP-conjugated anti-GST antibody. Conditions: both partners purified. (An ELISA detects its analyte on a solid surface through an enzyme-linked reagent.)

Integrin αvβ3 (Homo sapiens), sequence (P06756 31-992, chain 1 of 2): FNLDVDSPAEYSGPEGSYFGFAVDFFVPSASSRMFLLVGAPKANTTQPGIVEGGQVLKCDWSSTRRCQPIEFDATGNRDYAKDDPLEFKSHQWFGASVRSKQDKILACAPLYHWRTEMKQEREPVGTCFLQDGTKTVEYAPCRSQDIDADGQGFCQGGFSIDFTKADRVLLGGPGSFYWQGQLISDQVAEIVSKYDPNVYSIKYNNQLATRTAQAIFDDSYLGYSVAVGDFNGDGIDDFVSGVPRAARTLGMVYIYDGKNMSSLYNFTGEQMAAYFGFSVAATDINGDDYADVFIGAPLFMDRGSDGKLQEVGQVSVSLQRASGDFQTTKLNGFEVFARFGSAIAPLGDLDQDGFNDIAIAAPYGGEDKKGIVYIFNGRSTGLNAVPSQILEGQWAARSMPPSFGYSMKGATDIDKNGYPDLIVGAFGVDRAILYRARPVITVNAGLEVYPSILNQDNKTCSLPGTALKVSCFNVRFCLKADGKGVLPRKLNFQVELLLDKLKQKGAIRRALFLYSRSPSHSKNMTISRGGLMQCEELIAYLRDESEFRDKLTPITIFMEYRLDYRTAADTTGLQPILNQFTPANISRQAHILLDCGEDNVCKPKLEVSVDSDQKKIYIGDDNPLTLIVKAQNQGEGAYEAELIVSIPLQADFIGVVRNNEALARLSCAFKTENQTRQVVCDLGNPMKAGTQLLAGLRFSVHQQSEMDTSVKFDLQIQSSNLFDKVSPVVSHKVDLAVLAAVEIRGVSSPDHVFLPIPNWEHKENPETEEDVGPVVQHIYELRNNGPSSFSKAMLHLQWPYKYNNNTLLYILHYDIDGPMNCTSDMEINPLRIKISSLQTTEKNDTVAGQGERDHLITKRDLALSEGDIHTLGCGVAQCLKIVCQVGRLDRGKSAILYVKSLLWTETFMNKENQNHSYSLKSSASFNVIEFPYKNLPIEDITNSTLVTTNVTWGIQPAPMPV
Integrin αvβ3 (Homo sapiens), sequence (P05106 27-718, chain 2 of 2, further chain): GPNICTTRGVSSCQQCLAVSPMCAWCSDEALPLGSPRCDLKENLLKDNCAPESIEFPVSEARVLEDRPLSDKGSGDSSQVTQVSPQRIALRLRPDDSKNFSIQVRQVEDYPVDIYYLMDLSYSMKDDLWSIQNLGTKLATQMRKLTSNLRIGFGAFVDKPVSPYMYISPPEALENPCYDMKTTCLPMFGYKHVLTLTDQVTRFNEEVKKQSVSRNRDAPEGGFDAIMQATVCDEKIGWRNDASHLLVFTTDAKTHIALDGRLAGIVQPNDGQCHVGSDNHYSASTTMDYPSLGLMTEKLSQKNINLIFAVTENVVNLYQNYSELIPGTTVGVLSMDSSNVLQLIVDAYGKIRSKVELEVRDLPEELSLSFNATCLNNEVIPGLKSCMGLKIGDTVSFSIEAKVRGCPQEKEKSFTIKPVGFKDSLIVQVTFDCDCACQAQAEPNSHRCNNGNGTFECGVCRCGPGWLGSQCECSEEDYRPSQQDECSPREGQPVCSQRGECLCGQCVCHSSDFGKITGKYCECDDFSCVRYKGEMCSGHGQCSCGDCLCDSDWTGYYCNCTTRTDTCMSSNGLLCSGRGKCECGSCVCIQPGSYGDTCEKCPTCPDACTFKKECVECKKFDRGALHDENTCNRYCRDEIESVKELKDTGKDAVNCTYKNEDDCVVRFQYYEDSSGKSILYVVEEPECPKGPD

What is called Kd is a measure of binding affinity in units of concentration. Regarding “Fractalkine chemokine domain (from UniProt P78423)”, the equilibrium dissociation constant (Kd) in test [1] is 0.3 nM.

B1: GST fusion protein of site 2 peptide of integrin β3 (S2-β3 peptide) (peptide)
chain: QPNDGQSHVGSDNHYSASTTM
modifications: also: GST fusion protein
notes: The 6His tag was put into the BamHI site of pGEX-2T and the peptide's oligonucleotides into the BamHI/EcoRI site of the resulting vector; also called S2 peptide
For the molecule B1, the binding result in test [2] was “binds”.

(Values after article PMC4008574 (PLoS ONE, 2014).)
